Values of other authors as cited in paper PMC8300624.
Read-outs that look alike come from different tables or passages of the source.

Key:
ASK1 TBD (Homo sapiens) [1] = molecular target: ASK1 TBD (Homo sapiens) (UniProt Q99683)
ASK1 TBD (Homo sapiens) [2] = molecular target: ASK1 TBD (Homo sapiens) (UniProt Q99683); remark: listed apart in the source

Sequence of Thioredoxin 1 (P10599 2-105): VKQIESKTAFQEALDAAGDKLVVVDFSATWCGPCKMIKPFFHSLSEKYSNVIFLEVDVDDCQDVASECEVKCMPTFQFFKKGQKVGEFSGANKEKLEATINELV
Sequence of ASK1 TBD (Homo sapiens) (Q99683 88-302): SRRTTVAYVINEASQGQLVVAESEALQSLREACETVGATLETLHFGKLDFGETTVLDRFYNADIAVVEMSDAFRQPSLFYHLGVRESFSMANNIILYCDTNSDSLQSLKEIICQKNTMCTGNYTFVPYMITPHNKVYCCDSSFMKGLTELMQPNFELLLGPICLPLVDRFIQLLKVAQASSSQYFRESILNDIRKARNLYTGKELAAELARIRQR

Kd (ASK1 TBD (Homo sapiens) [1]): 0.3 µM | Kd (ASK1 TBD (Homo sapiens) [2]): 4 µM
Substance: Thioredoxin 1 (from UniProt P10599)
